Experimental data: patent US10500249B2, “Compositions and methods for preventing or treating diseases, conditions, or processes characterized by aberrant fibroblast proliferation and extracellular matrix deposition” (MOERAE MATRIX, INC., priority 2014, dated 2019)

Columns and labels:
Assay in all cases: Kinase Profiling Assay
Assay type in all cases: biochemical
Conditions in all cases: 100 μM
[1] = target: T1, EGFR (h) (Homo sapiens, UniProt P00533)
T1 construct: purchased Millipore
Procedure, shortened: (§1)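 Activity remaining relative to an uninhibited control was determined by scintillation counting of labeled substrate bound to a negatively charged filter. Radiolabeled phosphate came from ATP; the substrate carried positive charge. Duplicate measurements, within a 266-kinase human panel.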

[2] = target: ErbB4 (h) (Homo sapiens, UniProt Q15303)
Procedure, shortened: as §1

[3] = target: T2, HIPK2 (h) (Homo sapiens, UniProt Q9H2X6)
T2 construct: purchased Millipore
Procedure, shortened: as §1

[4] = target: T3, IRAK4 (h) (Homo sapiens, UniProt Q9NWZ3)
T3 construct: purchased Millipore
T3 sequence (Q9NWZ3 1-460): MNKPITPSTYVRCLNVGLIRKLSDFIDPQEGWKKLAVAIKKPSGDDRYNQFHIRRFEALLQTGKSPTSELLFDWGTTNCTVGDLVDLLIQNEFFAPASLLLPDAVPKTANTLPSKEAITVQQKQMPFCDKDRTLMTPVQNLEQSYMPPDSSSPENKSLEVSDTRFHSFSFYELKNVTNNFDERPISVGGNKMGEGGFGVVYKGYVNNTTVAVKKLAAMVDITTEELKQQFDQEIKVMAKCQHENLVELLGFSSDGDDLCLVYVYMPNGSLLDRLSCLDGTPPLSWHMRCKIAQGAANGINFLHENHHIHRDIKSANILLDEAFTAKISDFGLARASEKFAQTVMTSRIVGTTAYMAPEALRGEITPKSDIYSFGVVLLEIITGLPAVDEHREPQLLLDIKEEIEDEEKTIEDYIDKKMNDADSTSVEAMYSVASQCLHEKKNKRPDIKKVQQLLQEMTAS
Procedure, shortened: as §1

[5] = target: MAPK2 (h) (Homo sapiens, UniProt P28482)
Procedure, shortened: as §1

[6] = target: T4, MST2 (h) (Homo sapiens, UniProt Q13188)
T4 construct: purchased Millipore
T4 sequence (Q13188 1-491): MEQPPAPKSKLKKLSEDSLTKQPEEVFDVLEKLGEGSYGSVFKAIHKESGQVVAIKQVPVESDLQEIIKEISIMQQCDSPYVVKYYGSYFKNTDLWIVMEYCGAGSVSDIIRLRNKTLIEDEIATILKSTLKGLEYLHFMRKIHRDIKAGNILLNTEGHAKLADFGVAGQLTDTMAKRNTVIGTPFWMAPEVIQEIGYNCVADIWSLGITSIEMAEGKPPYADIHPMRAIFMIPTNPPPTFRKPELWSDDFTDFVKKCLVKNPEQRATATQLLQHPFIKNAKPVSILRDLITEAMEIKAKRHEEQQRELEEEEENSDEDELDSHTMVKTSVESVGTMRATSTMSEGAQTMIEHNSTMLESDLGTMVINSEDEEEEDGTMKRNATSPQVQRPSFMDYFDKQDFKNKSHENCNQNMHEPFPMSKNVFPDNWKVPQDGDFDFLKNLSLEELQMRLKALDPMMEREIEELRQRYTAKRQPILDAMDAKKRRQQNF
Procedure, shortened: as §1

[7] = target: T5, PDGFRα (V561D) (h) (Homo sapiens, UniProt P16234, V561D)
T5 construct: purchased Millipore
Procedure, shortened: as §1

[8] = target: T6, PKCε (h) (Homo sapiens, UniProt Q02156)
T6 construct: purchased Millipore
T6 sequence (Q02156 1-737): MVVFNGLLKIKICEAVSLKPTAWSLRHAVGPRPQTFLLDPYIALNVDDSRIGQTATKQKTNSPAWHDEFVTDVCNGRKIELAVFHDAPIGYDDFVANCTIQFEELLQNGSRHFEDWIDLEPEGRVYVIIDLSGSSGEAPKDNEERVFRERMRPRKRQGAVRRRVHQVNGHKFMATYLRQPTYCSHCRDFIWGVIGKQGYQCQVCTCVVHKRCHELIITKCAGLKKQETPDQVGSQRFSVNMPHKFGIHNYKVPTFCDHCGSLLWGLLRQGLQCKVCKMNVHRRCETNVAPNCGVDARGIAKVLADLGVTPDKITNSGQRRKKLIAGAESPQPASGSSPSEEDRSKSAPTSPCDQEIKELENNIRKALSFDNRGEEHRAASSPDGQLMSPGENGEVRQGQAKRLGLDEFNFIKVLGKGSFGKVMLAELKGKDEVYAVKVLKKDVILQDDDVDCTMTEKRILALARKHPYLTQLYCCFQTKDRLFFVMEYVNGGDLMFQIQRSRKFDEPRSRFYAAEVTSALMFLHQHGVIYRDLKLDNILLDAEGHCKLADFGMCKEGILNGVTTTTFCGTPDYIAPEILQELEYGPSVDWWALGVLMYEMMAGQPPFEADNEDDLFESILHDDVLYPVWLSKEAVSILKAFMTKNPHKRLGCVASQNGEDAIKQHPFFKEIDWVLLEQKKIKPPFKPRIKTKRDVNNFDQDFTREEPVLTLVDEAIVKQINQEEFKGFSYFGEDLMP
Procedure, shortened: as §1

[9] = target: T7, Pim-2 (h) (Homo sapiens, UniProt Q9P1W9)
T7 construct: purchased Millipore
Procedure, shortened: as §1

[10] = target: Rsk3 (h) (Homo sapiens, UniProt Q15349)
Procedure, shortened: as §1

[11] = target: Yes (h) (Homo sapiens, UniProt P07947)
Procedure, shortened: as §1

[12] = target: FGFR3 (h) (Homo sapiens, UniProt P22607)
Procedure, shortened: as §1

Yes (h), sequence (P07947 whole entry): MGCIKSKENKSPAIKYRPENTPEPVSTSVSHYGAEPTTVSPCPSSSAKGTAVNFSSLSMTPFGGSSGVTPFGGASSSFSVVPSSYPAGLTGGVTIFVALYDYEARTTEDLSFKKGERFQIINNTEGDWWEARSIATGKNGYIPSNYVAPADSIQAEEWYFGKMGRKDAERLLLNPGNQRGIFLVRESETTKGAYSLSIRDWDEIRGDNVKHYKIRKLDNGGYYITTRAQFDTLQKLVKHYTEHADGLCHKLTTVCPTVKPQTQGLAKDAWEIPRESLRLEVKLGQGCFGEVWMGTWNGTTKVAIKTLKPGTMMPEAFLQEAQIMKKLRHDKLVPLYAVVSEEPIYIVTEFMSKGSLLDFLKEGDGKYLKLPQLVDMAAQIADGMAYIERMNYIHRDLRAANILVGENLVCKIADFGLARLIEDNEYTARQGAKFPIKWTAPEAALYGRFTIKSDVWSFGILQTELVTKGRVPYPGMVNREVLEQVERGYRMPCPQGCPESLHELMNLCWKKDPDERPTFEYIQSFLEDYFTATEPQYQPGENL
MAPK2 (h), sequence (P28482 whole entry): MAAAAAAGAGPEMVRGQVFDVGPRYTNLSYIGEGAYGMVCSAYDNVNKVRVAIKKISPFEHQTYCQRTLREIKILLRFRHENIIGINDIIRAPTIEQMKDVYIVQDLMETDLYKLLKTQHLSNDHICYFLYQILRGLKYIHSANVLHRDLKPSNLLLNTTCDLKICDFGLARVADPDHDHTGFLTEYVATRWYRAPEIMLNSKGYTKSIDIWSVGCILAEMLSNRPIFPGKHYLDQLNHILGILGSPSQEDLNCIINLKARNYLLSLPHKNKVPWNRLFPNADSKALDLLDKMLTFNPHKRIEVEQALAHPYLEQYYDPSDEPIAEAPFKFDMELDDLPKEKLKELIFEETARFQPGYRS
T7 sequence (Q9P1W9 whole entry): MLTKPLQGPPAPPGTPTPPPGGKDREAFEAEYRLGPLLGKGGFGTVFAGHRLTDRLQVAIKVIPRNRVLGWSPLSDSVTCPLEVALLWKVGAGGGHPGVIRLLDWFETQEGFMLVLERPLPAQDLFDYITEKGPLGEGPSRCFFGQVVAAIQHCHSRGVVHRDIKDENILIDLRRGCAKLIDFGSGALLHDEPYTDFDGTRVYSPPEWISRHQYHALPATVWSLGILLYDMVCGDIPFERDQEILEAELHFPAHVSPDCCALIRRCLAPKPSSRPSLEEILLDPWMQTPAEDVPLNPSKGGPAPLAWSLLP
FGFR3 (h), sequence (P22607 23-806): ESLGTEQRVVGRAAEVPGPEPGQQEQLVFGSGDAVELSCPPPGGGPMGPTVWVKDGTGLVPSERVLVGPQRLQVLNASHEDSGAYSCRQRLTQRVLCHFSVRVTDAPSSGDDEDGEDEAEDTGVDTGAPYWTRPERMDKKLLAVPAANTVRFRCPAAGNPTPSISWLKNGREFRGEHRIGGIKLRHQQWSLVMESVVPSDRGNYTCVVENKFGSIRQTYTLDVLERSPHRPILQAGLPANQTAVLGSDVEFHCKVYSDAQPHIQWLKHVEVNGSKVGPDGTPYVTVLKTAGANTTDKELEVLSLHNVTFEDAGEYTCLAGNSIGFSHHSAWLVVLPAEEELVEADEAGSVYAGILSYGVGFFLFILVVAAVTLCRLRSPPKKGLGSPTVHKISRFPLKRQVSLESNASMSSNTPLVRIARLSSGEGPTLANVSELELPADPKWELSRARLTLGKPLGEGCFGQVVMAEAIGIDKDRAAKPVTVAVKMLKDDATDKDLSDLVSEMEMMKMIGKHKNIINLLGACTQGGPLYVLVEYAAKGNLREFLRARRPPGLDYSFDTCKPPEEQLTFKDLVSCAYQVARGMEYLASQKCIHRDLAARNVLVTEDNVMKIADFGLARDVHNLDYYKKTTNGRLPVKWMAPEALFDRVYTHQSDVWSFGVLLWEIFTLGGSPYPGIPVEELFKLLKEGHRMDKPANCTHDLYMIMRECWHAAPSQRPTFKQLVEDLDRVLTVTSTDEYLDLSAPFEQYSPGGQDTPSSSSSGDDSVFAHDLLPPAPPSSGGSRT
ErbB4 (h), sequence (Q15303 26-1308): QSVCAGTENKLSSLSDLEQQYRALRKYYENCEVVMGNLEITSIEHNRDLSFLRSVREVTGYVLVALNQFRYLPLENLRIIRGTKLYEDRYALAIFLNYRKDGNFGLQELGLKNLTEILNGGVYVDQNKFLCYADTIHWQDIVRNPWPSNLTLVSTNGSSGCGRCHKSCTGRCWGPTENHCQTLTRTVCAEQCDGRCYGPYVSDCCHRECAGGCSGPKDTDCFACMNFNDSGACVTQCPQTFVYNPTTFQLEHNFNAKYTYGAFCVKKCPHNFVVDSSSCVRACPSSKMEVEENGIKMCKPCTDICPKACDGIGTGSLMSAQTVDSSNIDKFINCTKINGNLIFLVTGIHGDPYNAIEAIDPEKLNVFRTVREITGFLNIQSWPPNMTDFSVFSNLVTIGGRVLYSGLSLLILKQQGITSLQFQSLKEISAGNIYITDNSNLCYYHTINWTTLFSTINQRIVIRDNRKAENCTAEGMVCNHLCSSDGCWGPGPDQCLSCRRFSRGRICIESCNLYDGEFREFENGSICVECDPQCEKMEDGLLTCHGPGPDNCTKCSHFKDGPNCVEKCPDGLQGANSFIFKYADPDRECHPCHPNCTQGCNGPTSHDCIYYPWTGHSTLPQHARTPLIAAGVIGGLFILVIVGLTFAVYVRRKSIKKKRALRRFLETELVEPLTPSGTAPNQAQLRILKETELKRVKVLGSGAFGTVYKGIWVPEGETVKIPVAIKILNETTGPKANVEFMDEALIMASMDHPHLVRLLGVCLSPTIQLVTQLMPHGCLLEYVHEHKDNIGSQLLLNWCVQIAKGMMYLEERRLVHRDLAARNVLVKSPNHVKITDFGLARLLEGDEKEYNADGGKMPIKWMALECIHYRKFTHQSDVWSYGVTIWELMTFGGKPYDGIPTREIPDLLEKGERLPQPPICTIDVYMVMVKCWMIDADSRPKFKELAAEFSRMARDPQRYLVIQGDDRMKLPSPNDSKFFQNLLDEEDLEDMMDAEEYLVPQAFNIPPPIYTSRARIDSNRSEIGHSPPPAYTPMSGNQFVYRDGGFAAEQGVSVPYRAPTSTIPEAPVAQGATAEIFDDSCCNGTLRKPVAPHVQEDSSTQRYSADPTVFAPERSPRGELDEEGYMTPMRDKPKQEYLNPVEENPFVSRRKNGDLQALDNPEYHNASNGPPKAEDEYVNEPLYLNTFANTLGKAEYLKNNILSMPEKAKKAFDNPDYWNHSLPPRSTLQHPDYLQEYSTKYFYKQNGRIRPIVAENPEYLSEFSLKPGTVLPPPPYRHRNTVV
T2 sequence (Q9H2X6 whole entry): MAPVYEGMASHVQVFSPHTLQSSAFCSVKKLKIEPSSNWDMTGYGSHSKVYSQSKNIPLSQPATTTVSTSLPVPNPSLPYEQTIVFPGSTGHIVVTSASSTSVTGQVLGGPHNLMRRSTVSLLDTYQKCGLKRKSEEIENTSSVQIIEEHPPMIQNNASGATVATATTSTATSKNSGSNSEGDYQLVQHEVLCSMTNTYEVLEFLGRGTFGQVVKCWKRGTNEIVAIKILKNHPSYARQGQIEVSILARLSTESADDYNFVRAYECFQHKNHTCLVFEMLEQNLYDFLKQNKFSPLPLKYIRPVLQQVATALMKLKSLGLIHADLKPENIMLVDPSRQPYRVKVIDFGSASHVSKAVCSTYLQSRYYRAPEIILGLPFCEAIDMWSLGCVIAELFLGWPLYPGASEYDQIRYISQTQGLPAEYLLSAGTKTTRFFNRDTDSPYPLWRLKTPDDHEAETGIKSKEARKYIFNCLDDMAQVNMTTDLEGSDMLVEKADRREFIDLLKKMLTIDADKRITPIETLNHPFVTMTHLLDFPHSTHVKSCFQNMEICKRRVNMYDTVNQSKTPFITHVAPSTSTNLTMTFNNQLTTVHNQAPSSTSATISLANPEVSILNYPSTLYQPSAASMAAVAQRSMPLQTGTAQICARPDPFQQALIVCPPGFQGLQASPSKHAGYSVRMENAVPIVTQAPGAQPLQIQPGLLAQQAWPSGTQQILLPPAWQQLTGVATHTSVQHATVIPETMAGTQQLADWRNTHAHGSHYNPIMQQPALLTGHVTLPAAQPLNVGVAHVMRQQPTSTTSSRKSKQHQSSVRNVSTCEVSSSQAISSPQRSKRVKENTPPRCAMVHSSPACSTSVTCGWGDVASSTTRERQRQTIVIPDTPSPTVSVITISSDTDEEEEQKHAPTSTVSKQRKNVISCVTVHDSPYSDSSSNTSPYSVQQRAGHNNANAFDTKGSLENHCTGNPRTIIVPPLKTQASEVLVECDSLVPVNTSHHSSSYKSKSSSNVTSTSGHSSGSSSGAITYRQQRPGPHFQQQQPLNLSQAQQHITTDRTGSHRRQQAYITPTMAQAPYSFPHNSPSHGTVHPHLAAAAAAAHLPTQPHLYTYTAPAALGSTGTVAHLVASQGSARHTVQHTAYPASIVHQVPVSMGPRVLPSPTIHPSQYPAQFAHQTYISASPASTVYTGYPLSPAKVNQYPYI

Sequence	% activity [1] [%]	% activity [2] [%]	% activity [3] [%]	% activity [4] [%]	% activity [5] [%]	% activity [6] [%]	% activity [7] [%]	% activity [8] [%]	% activity [9] [%]	% activity [10] [%]	% activity [11] [%]	% activity [12] [%]
FAKLAARLYRKALARQLGVAA [MMI-0300]	21	40	73	59	98	19	82	79	76	76	67	
HRRIKAWLKKIKALARQLGVAA (Mammalian) [MMI-0500]	−1	2	38	3	60	2	146	23	46	23		10
KAFAKLAARLYRKALARQLGVAA [MMI-0400]	16	0	90	59	93	11	100	59	92	71	14	0
YARAAARQARAKALNRQLGVA (Mammalian) [MMI-0200]	83	82		110				98	74		93	208
